Results from the supplement of paper PMC12042874.
± gives the uncertainty stated by the source.

Assay: amyloid nucleation score (Sup35N fusion, yeast selection) (log enrichment); library NNK1; higher = more nucleation; inactive = no reads after selection
Summary of the method: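 Growth for 7 days at 30°C on medium lacking adenine and uracil followed a 24-hour induction with 100 μM copper sulfate of psi-negative yeast expressing peptides of 20 random codons fused to Sup35N. Input and output plasmid inserts were sequenced with Illumina, and sequences with under 100 input reads were excluded. Nucleation score is the DiMSum log enrichment of output over input reads, centred on the mode score of non-aggregating sequences.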

Substance | amyloid nucleation score
ELDNCARLGADCKGLNAGRS | inactive
ELFASTCGFYALHRLGSRPG | 3.04 ± 0.092
ELMCFQQFKWKAMTYKWNGI | 0.337 ± 0.54
ELSLRSSISVGEPVRDP | 1.14 ± 0.6
ELSVRPCRVLYEHCGYRCEQ | 0.196 ± 0.49
ELTNTFTV | -0.335 ± 0.37
ELVSVGLSAIHSSDYNFSFN | 0.45 ± 0.7
EMHFR | 0.024 ± 0.65
EMKATIHLMLKINNTWFSVP | 2.07 ± 0.11
EMWRYRRVGIPRLA | 0.358 ± 0.92
ENDVLELFRFSLCLCHRPGG | inactive
ENGLFKF | 0.695 ± 0.32
ENSPLK | 0.493 ± 0.4
ENTLRSYRLGHKVEWLMELG | -0.363 ± 0.39
EPYLISEFRRT | -0.364 ± 0.47
EQPGVHYQNQFYKHVLYNAS | 0.587 ± 0.38
EQTCVVGPQE | 0.397 ± 1
ERAPASSMGSWYGIGKGNAV | -0.061 ± 1.1
ERFCQGSCCNNFMGVFIRES | 5.68 ± 0.077
ERNRHKVIMFMTSPWEMVIL | -1.06 ± 2.4
ERVAQKILHLKSMPITARPV | 0.002 ± 1.1
ERYPCDALDVDLRLTLCRKG | 0.222 ± 0.48
ESHVWELDLGSWSRFGWRSR | 2.62 ± 0.11
ESKVSGIVIFGGVEIAFYRG | 5.22 ± 0.1
ESNVWICAPPTDPWAIQTLR | -0.149 ± 0.51

Substance | amyloid nucleation score
ESTGQFYSPGSWVQGWTAYM | 0.398 ± 0.66
ESYSYQGCFATYLQQNTWCT | -0.008 ± 0.28
ETRTSTETRPCKLWFYDRM | -0.718 ± 1.2
ETSVRMVFFVKRLTGYMNLR | -0.277 ± 0.33
EVPSMRVNAPLKV | inactive
EVVQMVFIFFRCSLVDGKEW | 0.405 ± 0.72
EVYCIDVGDLSVSGKFDRSL | 1.54 ± 0.4
EWGANYVGVDCSLVVRRQDV | 0.497 ± 0.93
EWLDALKANTIFYWKYGSMI | 0.496 ± 0.63
EWTSCMPLAFMLPLVILSFA | 0.532 ± 0.7
EYFLSQYRKFTGYFVVITAT | 1.47 ± 0.76
EYFMRGLLWLI | 0.795 ± 0.39
EYLCLI | 0.147 ± 0.45
EYLSA | 0.403 ± 0.55
EYVMIRHAVLIKMFSMLKRV | -0.577 ± 0.45
FACTTSFSFMRWLRN | 0.903 ± 0.46
FAELRFFCCDS | 2.45 ± 0.21
FAFIDMHKGC | 1.69 ± 0.17
FAPRSLGFYMNFFPRMMGQR | -0.88 ± 1.5
FASARQLMQTTDKHSVWYVV | -1.87 ± 1.8
FASKRWLWSVEQLSRLSNGT | -0.087 ± 0.21
FASVTTIFFPSPLFFDIRWD | 1.09 ± 0.79
FATQTVAACVQCLKTRSDVF | 0.029 ± 1.1
FCAGGMGNCKCWLCFLRSTM | -1.33 ± 0.7
FCEWYLTDDFFYSLCFFFNE | 0.031 ± 0.55

Substance | amyloid nucleation score
FCILFSLIVTVGSLLRFLYR | 2.01 ± 0.1
FCLVMEFM | 0.606 ± 0.4
FCPPYLSHNNYYWLLVRVFV | 0.322 ± 0.37
FCSKTFL | 1.35 ± 0.46
FCWVGQNEWCRHLFELCLER | 0.517 ± 0.63
FDDFHESARTGFNGKERSQM | 1.01 ± 0.19
FDGCNTKGNMSFAWSRPLGM | 0.246 ± 0.97
FDNVVGYNGFMDGPGYLLYT | -0.16 ± 0.25
FDPCYTHALWLFGDVKARCM | -0.083 ± 0.37
FDRRLCFVG | 0.024 ± 0.52
FDRWFRQGNGLVV | 0.225 ± 0.78
FDSVHLRRSR | 0.701 ± 0.43
FEDIRYDRKVWGICALSNCA | 0.814 ± 0.47
FEKRALVSDSFYCNGVSRV | 0.082 ± 0.24
FELQEYCFD | 0.923 ± 0.5
FETDNIDPHGYSFEYDASPA | -0.25 ± 0.43
FFCMKGKILIINALLEIDVG | 0.079 ± 0.34
FFENWVYYHKCSHCYTAQYT | -0.559 ± 0.35
FFESEVSDKNFGSC | -1.29 ± 2.4
FFFIN | -0.391 ± 0.47
FFFIQTSPLHAQYAISLVLR | -0.057 ± 0.52
FFFYKPMNVEAIRDLHWPYS | 6.229 ± 0.06
FFGVTYREYTWS | inactive
FFIRIVCLWG | 0.659 ± 0.42
FFLNQMIILSLACIGEPGQG | 5.08 ± 0.068

Substance | amyloid nucleation score
FFNRNLMCVVLIVRT | -0.388 ± 0.47
FFNYD | -0.628 ± 0.8
FFQRVCK | 1.65 ± 0.31
FFRGFSWRVCSSFSSLVELW | inactive
FFRTSLCYDLVNSDEVDIIV | 0.411 ± 0.51
FFTHCMWD | -1.05 ± 1.1
FFTKAGRPFGLTRDISVL | -0.23 ± 0.87
FFWSYAYIVIRLVSTKCWY | 0.011 ± 0.28
FFYMDKLLCAQSPVRIFR | 0.837 ± 0.84
FGFLLHGDDDQEGIVTGRGG | 0.384 ± 0.76
FGIRVVSR | 0.842 ± 0.73
FGLVREVFKM | 0.171 ± 0.59
FGMVGTCYRMDRWDVIAVSV | 0.44 ± 0.41
FGNSCSADSNRYQIKYTMIK | 0.155 ± 0.45
FGSFVFPCYAQPELIPFNLY | 0.119 ± 0.72
FGSMFVRLFFGSLNKYGMVK | -0.712 ± 0.92
FGSQVFTDGHMCMQSGGTWC | 0.223 ± 0.34
FGTGFSLCKFFCLAMRPSDV | 5.25 ± 0.08
FGTLCSGDRYVRR | -0.611 ± 0.28
FGVRQVYINGNFLRCLGTKS | 0.751 ± 0.93
FGVTIPQVWVEC | -0.961 ± 1.7
FGWLKPR | 0.994 ± 0.49
FHDLTQSCVCGSM | 0.717 ± 0.49
FHFVGLSVTVVLLSFWGWNT | 0.78 ± 0.52
FHGLSGMRYWTRFCMWSPAC | 1.36 ± 0.66

Substance | amyloid nucleation score
FHICDNRLDCSLIVVANSWK | 2.65 ± 0.18
FHKVLSMFMMIVLVVKTWTT | inactive
FHLPALTSSLPA | 0.102 ± 0.35
FHLRSCIRFSYLMTDWQAFQ | 0.69 ± 1
FHYYMSFSGDGI | 0.724 ± 0.39
FICFYVVSYTIMSLLFDTLG | 0.713 ± 0.92
FICGDLNCQQTSSFCFLDYS | 7.296 ± 0.051
FIGVLIRSVCQSGARIV | 0.514 ± 0.17
FINAYRMFWIGYCNLFSLFL | 1.38 ± 0.52
FIQGLCMVFDVSYLRLS | 2.8 ± 0.15
FIRSRMVWLCLMLISTIERG | 0.835 ± 0.39
FIRVGLVCVLKFRSVGEAWL | -0.045 ± 0.9
FITRRSLGCRFPKPKSLRIN | -0.012 ± 0.4
FIVGTFLHENASLRFRIHKA | -0.011 ± 0.35
FIWECGNIISVCMRIGYMKA | 1.23 ± 0.41
FKASIYDISQNT | -0.459 ± 0.3
FKGHRHY | 0.318 ± 0.55
FKIVKSCSMFST | 0.761 ± 0.24
FKLIHAVNFVYLGYAFYAFF | 1.29 ± 0.38
FKNCFDSNTAGICLNHLWKR | 1.25 ± 0.63
FKNLCRAVS | 0.059 ± 0.53
FKNVHFRNS | -1.69 ± 1.3
FKSGRDSGMRG | -1.57 ± 1.1
FKVTVRVGSTMSILL | 0.223 ± 0.42
FKYRVGDTSCMVCNVWYGGD | 7.552 ± 0.057

Substance | amyloid nucleation score
FLALR | -0.249 ± 0.61
FLAWRTLDEMVLCKRCDNAI | 0.291 ± 1
FLEWAPSLNKLHRF | 0.768 ± 0.17
FLFRRYCAEEGLVWMKIVDT | 0.864 ± 0.53
FLGMAHLCHEEGVRKLGGES | 0.679 ± 0.64
FLGWICICPGQYRSAGPTAL | -0.487 ± 0.43
FLHHFQCKNTSN | inactive
FLKNEHSYTGWCFSTWPVRY | 1.95 ± 0.29
FLLGRNFNLANSNFHSVICL | 0.24 ± 0.88
FLLWKGTIDIMRWHVFASN | -0.847 ± 0.79
FLMPCFMKVGFVREEPWWRR | 0.096 ± 0.78
FLNCVSLVNLLRLFRVCLMP | -0.765 ± 1.5
FLNLAFAVSRLGLCMWYVAF | 0.319 ± 0.87
FLPQAAWCKLYLIKLLNPPL | 1.1 ± 0.98
FLRKHHSIMMVFMRIQGLRM | -1.72 ± 1.7
FLSEE | -0.584 ± 0.44
FLSICVDSVKFVFGGVWTSQ | -0.882 ± 0.53
FLSIYDTIVDCWVALVLVRG | -0.723 ± 0.91
FLSRFLMVRTRSAASVSAYE | -0.204 ± 0.39
FLSVFRL | -0.884 ± 1.1
FLSVLNFVRIIEKEVGRNRN | 1.79 ± 0.15
FLTTEYDDWVSSAFINCCGD | -0.475 ± 0.41
FLVMREFMIGCVRAG | 0.186 ± 0.97
FLVVETI | inactive
FMDDSSLFPSI | 0.569 ± 0.58

Substance | amyloid nucleation score
FMFLESRPSNCSTTPCKY | -0.29 ± 0.6
FMPFASKCGCPN | 0.595 ± 0.41
FMPTKGGQSIIGLHPLLFML | -0.577 ± 0.58
FMSAV | 0.374 ± 1.2
FMYWSIHDTIVLTWHDGSSL | -0.036 ± 0.65
FNDHWSCRV | -0.095 ± 0.48
FNGRVDSARCPGVARARHLL | -0.846 ± 2.4
FNMIVSYAFVAFIVNIKVEI | 1.99 ± 0.12
FNQINQGCRGCKQRTLVPDI | 0.5 ± 0.67
FNSTTTESLHAVAEGTMNPL | 0.671 ± 0.54
FNVRC | 0.496 ± 0.36
FNWLTTEFRW | -0.037 ± 0.36
FNWSRNHGF | 0.013 ± 0.76
FNYHACSNFSFSPDQPSFHC | 0.553 ± 0.45
FPDNVISIIDFR | -0.235 ± 0.54
FPEHVPVSVYVCYRGYGRRV | -0.589 ± 0.61
FPGLTFILAGMLCMTCKIRG | 4.12 ± 0.13
FPMRSWCLEACRHCRQPTFS | -0.301 ± 1.4
FPWTNLSDD | 0.04 ± 0.36
FPWVCIVVCERTS | 3.41 ± 0.17
FQAGREKSCCAYEVGDGCLV | -1.16 ± 2.4
FQCVFH | 3.88 ± 0.062
FQFESHW | 1.85 ± 0.24
FQPIGSMWNYRSMYVYSTLF | -0.062 ± 0.57
